# Data as given in paper PMC3978166, “A new unconventional HLA-A2-restricted epitope from HBV core protein elicits antiviral cytotoxic T lymphocytes” (Protein & Cell, 2014).
# What was measured:
# [1] = biological target: HLA-A*0201 molecules on T2 cells (human (endogenous in T2)); assay: flow cytometry on cells
# peptide-specific CTLs [2] = assay: Ex vivo IFN-γ ELISPOT on PBMCs from HLA-A2+ AHB patients; format: cell-based, human; details: PBMCs 2 × 10^5/well from HLA-A2+ AHB patients (n = 19), 50 μg/mL peptide; mean ± SD (Fig. 3D)
# From the text: (D) AHB patients (n = 29) were divided into HLA-A2-positive (n = 19) and HLA-A2-negative (n = 10) groups. PBMCs (2 × 10^5/well) from these patients were stimulated with the indicated peptides for detection of peptide-specific CTLs by ELISPOT assay. […] PBMCs from HLA-A2- patients were used for specificity evaluation of CTLs. Paired samples t-tests were used for ELISPOT assay in AHB patients. *P < 0.05 and **P < 0.01 by t-test. Data are representative of two independent experiments
# A total of 29 AHB patients were enrolled for blood collection, which were divided into two groups: HLA-A2-positive (n = 19) and HLA-A2-negative (n = 10). All patients were negative for HCV, HDV, and HIV-1 infection. 10 mL of blood samples were collected from each patient.
# To detect epitope-specific T cells, enzyme-linked immunosorbent spot (ELISPOT) assay was performed according to the manufacturer’s instruction. Briefly, ninety-six well PVDF plates (BD-Pharmigen, San Diego, CA) were precoated overnight at 4°C with the coating Ab and blocked for 1 h at 37°C. Patient PBMCs (2 × 10^5) or murine splenocytes (10^6) were added to each well together with 50 μg/mL of peptide and incubated at 37°C for 24–48 h with phytohemagglutinin (PHA)-stimulated T cells as positive controls. Each test was performed at least in triplicate. The spots were counted and analyzed using an ELISPOT Reader (Cellular Technology Ltd, USA).
# peptide-specific CTLs [3] = assay: IFN-γ ELISPOT on splenocytes of immunized HLA-A2.1/Kb transgenic mice; format: in vivo; details: female HLA-A2.1/Kb mice, HBc DNA prime/peptide boost with gp96 adjuvant, 1 week after last immunization; 5 × 10^5 splenocytes; mean ± SD of five mice (Fig. 3A)
# Method: Figure 3 Detection of HBc141–149 peptide-specific CD8 ^+ T cell response in HLA-A2.1/Kb mice and AHB patients. Female HLA-A2.1/Kb transgenic mice were immunized with an HBV DNA prime/peptide boost regimen at weeks 1, 3, and 4. […] (B and C) 293T cells labeled with CFSE were transfected with pHBV1.3 as target cells (B), and T2 cells labeled with CFSE were loaded with 20 μg/mL peptide at 37°C for 1 h as target cells (C). […] After 4 h, the mixed samples were stained with PI, and the killing of target cells were analyzed by FACS. The data shown are the mean ± SD of five mice. (D) AHB patients (n = 29) were divided into HLA-A2-positive (n = 19) and HLA-A2-negative (n = 10) groups. PBMCs (2 × 10^5/well) from these patients were stimulated with the indicated peptides for detection of peptide-specific CTLs by ELISPOT assay. HBc82–90 peptide served as negative control for background evaluation in ELISPOT assay. PBMCs from HLA-A2- patients were used for specificity evaluation of CTLs. Paired samples t-tests were used for ELISPOT assay in AHB patients. *P < 0.05 and **P < 0.01 by t-test. Data are representative of two independent experiments […]
# To detect epitope-specific T cells, enzyme-linked immunosorbent spot (ELISPOT) assay was performed according to the manufacturer’s instruction. […] The spots were counted and analyzed using an ELISPOT Reader (Cellular Technology Ltd, USA).
# HLA-A*0201 molecules = HLA-A*0201 molecules (Homo sapiens, UniProt P04439, D140Y/D185E/D98H/E176V/E277Q/G131W/G231S/I119V/I121R/I166T/I218V/L300P/L318F/N151K/N90K/P208A/P217A/Q86G/Q94H/R138H/R169H/T345S); assay: T2 binding assay (MHC stabilization assay with T2 cells, flow cytometry); format: cell-based; details: FI = (mean FITC fluorescence with peptide − without peptide)/(without peptide), high affinity FI ≥1, representative of three independent experiments
# From the text: (A) The overlapping method of 8 aa overlap was used to synthesize a total of 191 nonapeptides covering HBc aa 1–150. […] (C and D) Measurement of the binding affinity of HBc141–149N- or C-terminally truncated (C) or extended (D) peptides to HLA-A*0201. HBc82-90 served as a negative control (NC). (E) In vitro refolding of HBC141–149 peptide with HLA-A*0201 heavy chain and β2m. Gel filtration chromatography was used to analyze the refolded complexes on a Superdex200 16/60 column. […] The HLA complex (peak 2) was analyzed by SDS-PAGE electrophoresis and coomassie blue staining
# T2 cells were used to perform MHC stabilization assays as previously described (Zhou et al., [2006]). The binding activity of each peptide was calculated as the fluorescent index (FI), and the FI was determined by: (mean FITC fluorescence with the given peptide − mean FITC fluorescence without peptide) (mean FITC fluorescence without peptide).
Substance,FI (fluorescent index) [1],"FI (fluorescent index), binding to HLA-A*0201 (HLA-A*0201 molecules)",other results
HBc142–149 peptide,0.151,,
HBc141–150 peptide,0.005,,
HBc140–149 peptide,0.033,,
RELVVSYVN [HBc82–90],,,"peptide-specific CTL response, ex vivo IFN-γ ELISPOT (peptide-specific CTLs [2]): 20.94 ± 17.57; peptide-specific CTL response, IFN-γ ELISPOT (SFC) (peptide-specific CTLs [3]): No peptide-specific CD8^+ T cell response was detected"
"LSTLPETTVV [HBc140–149, extended decapeptide of HBc141–149, […]]",,0.033,
HBc60–68 (V60) peptide,2.64,,
TLPETTVV [HBc142–149],,0.151,
HBc141–149 peptide,2.41,,
HBc141–148 peptide,0.124,,
STLPETTV [HBc141–148],,0.124,
